From patent US20260308536A1, “NOVEL URICASE VARIANTS AND METHODS OF USE THEREOF” (priority 2023, published 2026)
Substitutions are numbered along the chain they refer to. Numbers in names are those of the source.

What was measured:
[1] = substrate: O=c1[nH]c(=O)c2[nH]c(=O)[nH]c2[nH]1; assay: Michaelis-Menten kinetics, MedU_5E9; type: biochemical, Arthrobacter globiformis; conditions: other: role: substrate; non-PEGylated; Table 8B; pH 10.5
Protocol: (§1) Select Arthrobacter globiformis uricase variants MedU_1B7, MedU_5B8, MedU_1C2, MedU_5C9, MedU_5E6, MedU_5E9, and MedU_IF1 were subject to further characterization by comparing their expression yields, Michaelis-Menten kinetics parameters, and thermostability measured by temperatures at which 50% of normal activity was lost determined by heat stress activity assay, with those of the wild type Arthrobacter globiformis uricase. The expression yields were determined as described above in the “Methods” section. The Michaelis-Menten kinetics parameters kcat and KM, and temperatures at which 50% of normal activity was lost (i.e., 50% thermal inactivation temperatures, referred to as TI50 (° C.)) measured by heat stress activity assay were likewise determined using the methods described in Example 1.

[2] = substrate: O=c1[nH]c(=O)c2[nH]c(=O)[nH]c2[nH]1; assay: Michaelis-Menten kinetics, wild type Arthrobacter globiformis uricase; type: biochemical; conditions: other: role: substrate; non-PEGylated; Table 8B; pH 10.5
Description: Non-PEGylated deimmunized Arthrobacter globiformis uricase variants were created by introducing additional amino acid substitutions into the R49S variant Arthrobacter globiformis uricase of SEQ ID NO:6 disclosed in Nyborg et al., PLOS One, 2016, DOI: 10.1371/journal.pone.0167935. For ease of description, the R49S variant Arthrobacter globiformis uricase of SEQ ID NO:6 is referred to as the wild type Arthrobacter globiformis uricase herein, as it serves as the enzyme being mutated to arrive at the variants. The monomeric form of the wild type Arthrobacter globiformis uricase comprises the amino acid sequence of SEQ ID NO:6, where methionine is residue #1. The specified mutations in the Arthrobacter globiformis uricase variants of this example are indexed to methionine as residue #1, as in SEQ ID NO:6. […]
Select Arthrobacter globiformis uricase variants MedU_1B7, MedU_5B8, MedU_1C2, MedU_5C9, MedU_5E6, MedU_5E9, and MedU_IF1 were subject to further characterization by comparing their expression yields, Michaelis-Menten kinetics parameters, and thermostability measured by temperatures at which 50% of normal activity was lost determined by heat stress activity assay, with those of the wild type Arthrobacter globiformis uricase. The expression yields were determined as described above in the “Methods” section. […]

[3] = substrate: O=c1[nH]c(=O)c2[nH]c(=O)[nH]c2[nH]1; assay: purified protein, by the assay type; type: biochemical, chimeric pig-baboon; conditions: other: role: substrate
Description: The monomeric form of the wild type chimeric pig-baboon uricase comprises the amino acid sequence of SEQ ID NO:5, where threonine is residue #1. The specified mutations in the chimeric pig-baboon uricase variants of this example are indexed to threonine as residue #1, as in SEQ ID NO:5. […] The expression vector pET-26b(+) encodes a His tag containing 6 histidine residues at the C-terminus of the inserted uricase gene.
(§2) The activity of the purified enzymes was quantified by Michaelis Menten kinetic analysis, using the solution phase microplate assay across a range of substrate concentrations (FIG. 4B).

[4] = substrate: O=c1[nH]c(=O)c2[nH]c(=O)[nH]c2[nH]1; assay: purified protein, by the assay type; type: biochemical, chimeric pig-baboon; conditions: other: role: substrate; remark: listed apart in the source
Protocol: Variants 1 (dURC1) and 3 (dURC3) were identified as possible lead candidates. Besides the mutations according to the library design, i.e., the designed mutations of F75Q; K79N; T83Q; E90H; F96H; I100E; Y105D; V119K; F172Y; L260N; and I262T, dURC3 comprised an off-position amino acid mutation K76N. An off-position amino acid mutation is defined as having a non-designed amino acid at a non-target site. […] Specifically, in the dURC1 backbone, the following mutations were tested separately: L154T; K155D; K155N; L157H; L157T; T159E; T159Q; and S162D; and in the dURC3 backbone, the K155N mutation was tested. […] The characteristics, including yield, activity, melting temperature measured by DSF, temperature at which 50% of normal activity was lost after heating measured by heat stress activity assay, Michaelis-Menten kinetics parameters, of variants 1, 2, 3, and 4 (i.e., dURC1, dURC2, dURC3 and dURC4), as well as the wild type chimeric pig-baboon uricase, are summarized in Table 2. The amino acid sequences of dURC1, dURC2, dURC3 and dURC4 are shown as SEQ ID NO: 1, 2, 3, and 4, respectively.
as §2

[5] = substrate: O=c1[nH]c(=O)c2[nH]c(=O)[nH]c2[nH]1; assay: purified protein, by the assay type; type: biochemical, chimeric pig-baboon; conditions: other: role: substrate; remark: listed apart in the source
[6] = substrate: O=c1[nH]c(=O)c2[nH]c(=O)[nH]c2[nH]1; assay: Michaelis-Menten kinetics, MedU_1F1; type: biochemical, Arthrobacter globiformis; conditions: other: role: substrate; non-PEGylated; Table 8B; pH 10.5
Protocol: as §1

[7] = substrate: O=c1[nH]c(=O)c2[nH]c(=O)[nH]c2[nH]1; assay: Michaelis-Menten kinetics, MedU_5B8; type: biochemical, Arthrobacter globiformis; conditions: other: role: substrate; non-PEGylated; Table 8B; pH 10.5
Protocol: as §1

[8] = substrate: O=c1[nH]c(=O)c2[nH]c(=O)[nH]c2[nH]1; assay: Michaelis-Menten kinetics, MedU_5C9; type: biochemical, Arthrobacter globiformis; conditions: other: role: substrate; non-PEGylated; Table 8B; pH 10.5
Protocol: as §1

[9] = substrate: O=c1[nH]c(=O)c2[nH]c(=O)[nH]c2[nH]1; assay: Michaelis-Menten kinetics, MedU_1B7; type: biochemical, Arthrobacter globiformis; conditions: other: role: substrate; non-PEGylated; Table 8B; pH 10.5
Protocol: as §1

[10] = substrate: O=c1[nH]c(=O)c2[nH]c(=O)[nH]c2[nH]1; assay: Michaelis-Menten kinetics, MedU_1C2; type: biochemical, Arthrobacter globiformis; conditions: other: role: substrate; non-PEGylated; Table 8B; pH 10.5
Protocol: as §1

[11] = non-PEGylated, pH 10.5, 25° C., Table 2
[12] = purified enzyme, non-linear regression, Table 3, pH 10.5, 25.0 °C

B1: Arthrobacter globiformis uricase variant MedU_5E9, N33E/A35D/A83G/A145T/A148S/V195D/A204D/A213G/L220K/K244S/Y270H, SEQ ID NO: 164 (Arthrobacter globiformis; … (protein)
chain: MTATAETSTGTKVVLGQNQYGKAEVRLVKVTRETDRHEIQDLNVTSQLSGDFEAAHTAGDNAHVVATDTQKNTVYAFARDGFGTTEEFLLRLGKHFTEGFDWVTGGRWAAQQFFWDRINDHDHAFSRNKSEVRTAVLEISGSEQTIVSGIEGLTVLKSTGSEFHGFPRDKYTTLQETTDRILATDVSARWRYNTDEVDFDAVYDSVRGLLLKGFAETHSKALQQTMYEMGRAVIETHPEIDEISMSLPNKHHFLVDLQPFGQDNPNEVFHAADRPYGLIEATIQREGSRAD
notes: R49S backbone, 291 aa; pET-26b(+), C-terminal His6, E. coli; non-PEGylated
- Km [1]: 800 ± 100 µM
- kcat [1]: 6.0 ± 0.4 s⁻¹

B2: Arthrobacter globiformis uricase, wild type (R49S variant, referred to as wild type), SEQ ID NO: 6 (Arthrobacter globiformis; R49S) (protein)
chain: MTATAETSTGTKVVLGQNQYGKAEVRLVKVTRNTARHEIQDLNVTSQLSGDFEAAHTAGDNAHVVATDTQKNTVYAFARDGFATTEEFLLRLGKHFTEGFDWVTGGRWAAQQFFWDRINDHDHAFSRNKSEVRTAVLEISGSEQAIVAGIEGLTVLKSTGSEFHGFPRDKYTTLQETTDRILATDVSARWRYNTVEVDFDAVYASVRGLLLKAFAETHSLALQQTMYEMGRAVIETHPEIDEIKMSLPNKHHFLVDLQPFGQDNPNEVFYAADRPYGLIEATIQREGSRAD
notes: His6 (C); made in house; host or cells: E. coli
- Km [2]: 270 ± 80 µM
- kcat [2]: 2.3 ± 0.2 s⁻¹

B3: chimeric pig-baboon uricase, wild type, SEQ ID NO: 5 (Sus scrofa; R291K/S46T/T301S) (protein)
chain: TYKKNDEVEFVRTGYGKDMIKVLHIQRDGKYHSIKEVATTVQLTLSSKKDYLHGDNSDVIPTDTIKNTVNVLAKFKGIKSIETFAVTICEHFLSSFKHVIRAQVYVEEVPWKRFEKNGVKHVHAFIYTPTGTHFCEVEQIRNGPPVIHSGIKDLKVLKTTQSGFEGFIKDQFTTLPEVKDRCFATQVYCKWRYHQGRDVDFEATWDTVRSIVLQKFAGPYDKGEYSPSVQKTLYDIQVLTLGQVPEIEDMEISLPNIHYLNIDMSKMGLINKEEVLLPLDNPYGKITGTVKRKLSSRL
notes: as for B2
- Km [3, 11]: 397 µM
- Km [3, 12]: 400 ± 50 µM

B4: chimeric pig-baboon uricase variant 1 (dURC1), F75Q/K79E/T83Q/E90H/F96H/I100H/Y105D/V119K/Y127H/F172Y/L260N, SEQ ID NO: 1 (Sus scrofa; … (protein)
chain: TYKKNDEVEFVRTGYGKDMIKVLHIQRDGKYHSIKEVATTVQLTLSSKKDYLHGDNSDVIPTDTIKNTVNVLAKQKGIESIEQFAVTICHHFLSSHKHVHRAQVDVEEVPWKRFEKNGKKHVHAFIHTPTGTHFCEVEQIRNGPPVIHSGIKDLKVLKTTQSGFEGFIKDQYTTLPEVKDRCFATQVYCKWRYHQGRDVDFEATWDTVRSIVLQKFAGPYDKGEYSPSVQKTLYDIQVLTLGQVPEIEDMEISLPNIHYNNIDMSKMGLINKEEVLLPLDNPYGKITGTVKRKLSSRL
notes: purified
- Km [4, 11]: 678 µM
- Km [4, 12]: 700 ± 100 µM

B5: chimeric pig-baboon uricase variant 3 (dURC3), F75Q/K76N/K79N/T83Q/E90H/F96H/I100E/Y105D/V119K/F172Y/L260N/I262T, SEQ ID NO: 3 (Sus scrofa; … (protein)
chain: B4 chain with K76N, E79N, H100E, H127Y, I262T
notes: purified
- Km [5, 11]: 595 µM
- Km [5, 12]: 600 ± 70 µM

B6: chimeric pig-baboon uricase variant 2 (dURC2), F75Q/K79E/T83Q/E90H/F96H/I100H/Y105D/V119K/Y127H/K155N/F172Y/L260N, SEQ ID NO: 2 (Sus scrofa; … (protein)
chain: B4 chain with K155N
notes: purified
- Km [4, 11]: 467 µM
- Km [4, 12]: 470 ± 60 µM

B7: chimeric pig-baboon uricase variant 4 (dURC4), F75Q/K76N/K79N/T83Q/E90H/F96H/I100E/Y105D/V119K/K155N/F172Y/L260N/I262T, SEQ ID NO: 4 (Sus scrofa; … (protein)
chain: B4 chain with K76N, E79N, H100E, H127Y, K155N, I262T
notes: purified
- Km [4, 11]: 347 µM
- Km [4, 12]: 350 ± 20 µM

B8: Arthrobacter globiformis uricase variant MedU_1F1, A35D/A83G/L89G/V195E/Y203H/A204E/A213G/L220H/I243V/K244S/K250N, SEQ ID NO: 95 (Arthrobacter globiformis; … (protein)
chain: MTATAETSTGTKVVLGQNQYGKAEVRLVKVTRNTDRHEIQDLNVTSQLSGDFEAAHTAGDNAHVVATDTQKNTVYAFARDGFGTTEEFGLRLGKHFTEGFDWVTGGRWAAQQFFWDRINDHDHAFSRNKSEVRTAVLEISGSEQAIVAGIEGLTVLKSTGSEFHGFPRDKYTTLQETTDRILATDVSARWRYNTEEVDFDAVHESVRGLLLKGFAETHSHALQQTMYEMGRAVIETHPEIDEVSMSLPNNHHFLVDLQPFGQDNPNEVFYAADRPYGLIEATIQREGSRAD
notes: as for B1
- Km [6]: 370 ± 60 µM
- kcat [6]: 2.5 ± 0.1 s⁻¹

B9: Arthrobacter globiformis uricase variant MedU_5B8, A35D/A83G/A145T/A148S/V195E/A204D/A213G/L220H/I243V/K244S, SEQ ID NO: 134 (Arthrobacter globiformis; … (protein)
chain: B1 chain with E33N, D195E, K220H, I243V, H270Y
notes: as for B1
- Km [7]: 390 ± 80 µM
- kcat [7]: 3.9 ± 0.2 s⁻¹

B10: Arthrobacter globiformis uricase variant MedU_5C9, A35D/A145H/A148S/V195D/A204D/A213G/K244S/K250N, SEQ ID NO: 144 (Arthrobacter globiformis; … (protein)
chain: B1 chain with E33N, G83A, T145H, K220L, K250N, H270Y
notes: as for B1
- Km [8]: 340 ± 80 µM
- kcat [8]: 2.4 ± 0.1 s⁻¹

B11: Arthrobacter globiformis uricase variant MedU_1B7, A35D/A83G/A145T/A148S/A204G/A213G/I243V/K244S, SEQ ID NO: 77 (Arthrobacter globiformis; … (protein)
chain: B1 chain with E33N, D195V, D204G, K220L, I243V, H270Y
notes: as for B1
- Km [9]: 440 ± 90 µM
- kcat [9]: 3.8 ± 0.2 s⁻¹

B12: Arthrobacter globiformis uricase variant MedU_1C2, A145T/V195E/I243V/K244S/K250N/Y270H, SEQ ID NO: 80 (Arthrobacter globiformis; … (protein)
chain: B2 chain with A145T, V195E, I243V, K244S, K250N, Y270H
notes: as for B1
- Km [10]: 500 ± 90 µM
- kcat [10]: 3.4 ± 0.2 s⁻¹
